Values joined by “and” are separate entries in the source; they are usually repeats but may differ in a detail not shown here. Equal entries are not always repeated.
B1: mma: known mevalonate kinase derived from Methanosarcina mazei (SEQ ID NO:12), His-tagged purified enzyme (protein, listed as Methanosarcina mazei)
chain: MVSCSAPGKIYLFGEHAVVYGETAIACAVELRTRVRAELNDSITIQSQIGRTGLDFEKHPYVSAVIEKMRKSIPINGVFLTVDSDIPVGSGLGSSAAVTIASIGALNELFGFGLSLQEIAKLGHEIEIKVQGAASPTDTYVSTFGGVVTIPERRKLKTPDCGIVIGDTGVFSSTKELVANVRQLRESYPDLIEPLMTSIGKISRIGEQLVLSGDYASIGRLMNVNQGLLDALGVNILELSQLIYSARAAGAFGAKITGAGGGGCMVALTAPEKCNQVAEAVAGAGGKVTITKPTEQGLKVD
modifications: His-tag
B2: mpd: mevalonate kinase derived from Methanocella paludicola (SEQ ID NO:1), His-tagged purified enzyme (protein, listed as Methanocella paludicola)
chain: MTMCSAPGKVFLFGEHAVVYGKRAIACAIDLRTTVEVSRKSRGVHIHSAFKDEPDKNLYIKTAVKRMQKCADIRNVNIAVSSRIPVASGLGSSAAVTVATIGALNEEFSAGLSKKDIAYMAYQTELEVQGAASPTDTFVSTMGGTVVVPDMRTLPPITCGIVVGHTGISKSTSRMVSRVRTLKEKYPDVIDGIMDSIGDISARGEDLIKQNDYRSIGELMNVNQGLLDALGITIPELSLQIYAARQHGAYGAKITGAGGGGCMVAICDDKNCKEIATAIGRSYGDSFISKPTAEGIFIQ
modifications: His-tag
B3: cva: mevalonate kinase derived from Corynebacterium variabile (SEQ ID NO:3), His-tagged purified enzyme (protein)
chain: MAPHVGHGQTVAKIILFGEHSVVYGHPAIAMPLRTLRMIARVEPTDGPGTLSGLGWTGPITEAPARFSSIVKAAEVASDFAGHPGAGLNISTESEFPPERGLGSSAAAAGAVIRAVLDAFDTPATPRELFDLTQEAETVAHGRPSGLDAVATSAEAPVHFQAGQATDLEFSPDAWIVIADSGVEGSTRETVGHVRGRFEAEPDIITALLNRLGEITDEVVVDLRTGDVQGMGARMTEAHGILGQLGVSNTQLDALVTASLGAGALGAKLTGGGRGGCVIALAATEEDAENVEKALVDAGARGTWVHAPATGQMAGEVMQ
modifications: His-tag; Corynebacterium variabile
B4: sce: mevalonate kinase of Saccharomyces cerevisiae encoded by the ERG12 gene, His-tagged purified enzyme (protein, UniProt P07277 1-443, looked up)
Mevalonate kinase: MSLPFLTSAPGKVIIFGEHSAVYNKPAVAASVSALRTYLLISESSAPDTIELDFPDISFNHKWSINDFNAITEDQVNSQKLAKAQQATDGLSQELVSLLDPLLAQLSESFHYHAAFCFLYMFVCLCPHAKNIKFSLKSTLPIGAGLGSSASISVSLALAMAYLGGLIGSNDLEKLSENDKHIVNQWAFIGEKCIHGTPSGIDNAVATYGNALLFEKDSHNGTINTNNFKFLDDFPAIPMILTYTRIPRSTKDLVARVRVLVTEKFPEVMKPILDAMGECALQGLEIMTKLSKCKGTDDEAVETNNELYEQLLELIRINHGLLVSIGVSHPGLELIKNLSDDLRIGSTKLTGAGGGGCSLTLLRRDITQEQIDSFKKKLQDDFSYETFETDLGGTGCCLLSAKNLNKDLKIKSLVFQLFENKTTTKQQIDDLLLPGNTNLPWTS
modifications: His-tag

Each molecule was assayed on mevalonate kinase (assay: Examination of product inhibition on each mevalonate kinase (absorbance at 386 nm, PMK addition)). Conditions: 1 mM mevalonate as substrate; in words.
Format: biochemical
Procedure: When decrease in absorbance stopped, purified PMK was added to measure further decrease in absorbance at 386 nm.
FIG. 18 presents the SDS-PAGE profile of the purified PMK. […] Then, absorbance decreased further and finally absorbance at 386 nm decreased to 0.3 in all reaction systems. Therefore, it is inferred that mevalonate is converted into diphosphomevalonate via phosphomevalonate by adding PMK to each MVK.
In the case of B1, the “course of decrease in absorbance at 386 nm until PMK addition” value (“course of decrease in absorbance” for short) is reported as “almost linear decrease in absorbance”.
For B2, the “course of decrease in absorbance” value was “almost linear decrease in absorbance”.
For B3, the “course of decrease in absorbance” value was “almost linear decrease in absorbance”.
B4 was tested, and the “course of decrease in absorbance” value was “almost linear decrease in absorbance”.

Each molecule was assayed on mevalonate kinase (assay: Expression analysis and activity confirmation of His-tagged mevalonate kinases from pET-21a(+) and pET-28b(+)). Conditions: His-spinTrap eluate after dialysis, 10 μl enzyme solution.
Format: biochemical
Procedure: Each obtained plasmid was used for transformation of E. coli BL21(DE3). […] When OD600 reached approximately 0.5, IPTG was added to the solution to final concentration of 1 mM. It was then cultured overnight at 20° C. Harvested cells were suspended in the buffer solution consisting of 50 mM sodium phosphate, 0.3 M NaCl and 20 mM Imidazol. Then the cells were disrupted with an ultrasonic disruptor (TOMY: UD-201, output level=3.5). After centrifugation (20,000×g, 20 min), disrupted cells were adsorbed to His-spinTrap (GE Healthcare). After washing with the same buffer solution, protein was eluted with the buffer solution consisting of 50 mM sodium phosphate, 0.3 M NaCl and 0.5 M imidazole (pH7.5). Eluate was dialyzed overnight at 4° C. with the external solution composed of 20 mM Tris-HCl (pH7.5) and 50 mM NaCl. Then, enzyme activity of each eluate in the internal dialysis solution was measured.
Activity of the internal dialysate (about 0.2 ml each) was measured with the 10 μl of enzyme solution (Table 8). Enzyme expression level was compared on activity basis between pET-21a(+) and pET-28b(+). […] It is inferred that expression level is higher in pET-28b(+). Therefore, purified enzyme expressed in pET-28b(+) was used in the further examinations.
Values were presented by decrease in absorbance per unit time per 10 μl in the enzyme reaction measurement system (dABS/min/10 μl).
(§1) Decrease in absorbance at 340 nm at 30° C. was measured to determine the enzyme activity. JASCO Corporation's spectrophotometer (V-650) was used in this study. Millimolar extinction coefficient of NADH used in this study was 6.22 mM^−1 cm^−1. […] Km value was calculated by Lineweaver-Burk plot.
In the case of B1, the “enzyme activity, pET21 system (C terminal Tag)” value (“enzyme activity, pET21 system” for short) is reported as 0.225 dABS/min/10 μl and the “enzyme activity, pET28 system (N terminal Tag)” value (from here on “enzyme activity, pET28 system”) is reported as 0.231 dABS/min/10 μl.
In the case of B2, the “enzyme activity, pET21 system” value is reported as 0.011 dABS/min/10 μl and the “enzyme activity, pET28 system” value is reported as 0.031 dABS/min/10 μl.
B3 was tested, and the “enzyme activity, pET21 system” value was 0.019 dABS/min/10 μl and the “enzyme activity, pET28 system” value was 0.211 dABS/min/10 μl.
With B4 the “enzyme activity, pET21 system” value was 0.001 dABS/min/10 μl and the “enzyme activity, pET28 system” value was 0.127 dABS/min/10 μl.

The molecules below were run on mevalonate kinase (assay: Inhibition of each mevalonate kinase by DMAPP, GPP, FPP or DPM). Conditions: Table 11 control without terpenyl diphosphate (methanol added).
Format: biochemical
Procedure: Since GPP and FPP solutions contain methanol, methanol which was needed to keep the same methanol level at the addition to the reaction system was added to the reaction solution, which was designated as control.
Respective effect of the added 5 mM DMAPP, 0.1 mM GPP, and 0.1 mM FPP on the activity of each enzyme was measured. […] Contrarily, mcl-derived enzyme was activated by 5 mM DMAPP and its activity increased by 20% from that of the control.
Activity when 10 μl of each enzyme was added to 1 ml of the reaction system was represented by dABS/min
Effect of 1 mM diphosphomevalonate (DPM) on each enzyme was also studied.
In the case of B1, the “enzyme activity, Control” value is reported as 0.21 dABS/min.
For B2, the “enzyme activity, Control” value was 0.1573 dABS/min.
With B3 the “enzyme activity, Control” value was 0.08338 dABS/min.
With B4 the “enzyme activity, Control” value was 0.1365 dABS/min.

Same assay, conditions: Table 12 control without DPM
In the case of B1, the “enzyme activity, Control” value is reported as 0.1604 dABS/min.
In the case of B2, the “enzyme activity, Control” value is reported as 0.148 dABS/min.
With B3 the “enzyme activity, Control” value was 0.07328 dABS/min.
For B4, the “enzyme activity, Control” value was 0.1028 dABS/min.

What follows are molecules tested on mevalonate kinase (assay: Measurement of activity and Km value of purified mevalonate kinase (PK/LDH coupled, 340 nm)). Conditions: ATP 0.04 mM, potassium mevalonate 5 mM; 10 μl enzyme in 1 ml; replicate values.
Format: biochemical
Procedure: Each obtained plasmid was used for transformation of E. coli BL21(DE3). […] When OD600 reached approximately 0.5, 0.1 mM IPTG (for cva, mma, nmr, and sce) or 1 mM (for mcl and mpd) of IPTG was added, and then the mixture was kept at 20° C. overnight to induce the target protein. Harvested cells were suspended in buffer solution A (50 mM sodium phosphate, 0.3 M NaCl and 20 mM Imidazol), and then the cells were disrupted with an ultrasonic disruptor (TOMY: UD-201). […] After centrifugation (28,000×g, 30 min), the supernatant was adsorbed onto His-Trap HP (GE Healthcare) to elute the target protein by linear concentration gradient of Imidazol (final concentration 0.5 M). Obtained protein was dialyzed by using an external solution composed of 20 mM Tris-HCl (pH 8.0) containing 1 mM DTT and 50 mM NaCl. Dialyzed protein was designated as purified enzyme. Protein quantity was measured with Bio-RAD protein assay kit and BSA standard condition.
as §1
Measured activity of each enzyme (JABS/min) was presented on Table 9 for the calculation of apparent Km value (Km app.) of each enzyme. Table 10 presents Km app., Vmax, molecular weight of the enzyme protein, protein concentration in the enzyme solution and calculated kcat.
Activity was indicated by dABS/min when 10 μl of each enzyme was added to 1 ml of reaction solution.
In the case of B1, the “dABS/min at ATP 0.04 mM” value is reported as 0.01326 dABS/min and 0.01358 dABS/min and 0.01398 dABS/min.
For B2, the “dABS/min at ATP 0.04 mM” value was 0.01369 dABS/min and 0.01352 dABS/min and 0.01403 dABS/min.

Same assay, conditions: ATP 0.2 mM, potassium mevalonate 5 mM; 10 μl enzyme in 1 ml; replicate values
B1 was tested, and the “dABS/min at ATP 0.2 mM” value was 0.05835 dABS/min and 0.05848 dABS/min and 0.05859 dABS/min.
B2 was tested, and the “dABS/min at ATP 0.2 mM” value was 0.03262 dABS/min and 0.03252 dABS/min and 0.0325 dABS/min.
With B3 the “dABS/min at ATP 0.2 mM” value was 0.005822 dABS/min and 0.005967 dABS/min and 0.005722 dABS/min.
For B4, the “dABS/min at ATP 0.2 mM” value was 0.03041 dABS/min and 0.0304 dABS/min and 0.03229 dABS/min.

Same assay, conditions: ATP 1 mM, potassium mevalonate 5 mM; 10 μl enzyme in 1 ml; replicate values
With B1 the “dABS/min at ATP 1 mM” value was 0.1533 dABS/min (2×) and 0.1528 dABS/min.
In the case of B2, the “dABS/min at ATP 1 mM” value is reported as 0.04713 dABS/min and 0.04701 dABS/min and 0.04689 dABS/min.
B3 was tested, and the “dABS/min at ATP 1 mM” value was 0.02063 dABS/min and 0.02015 dABS/min and 0.02051 dABS/min.
In the case of B4, the “dABS/min at ATP 1 mM” value is reported as 0.07032 dABS/min and 0.07022 dABS/min and 0.0702 dABS/min.

Same assay, conditions: ATP 5 mM, potassium mevalonate 5 mM; 10 μl enzyme in 1 ml; replicate values
With B2 the “dABS/min at ATP 5 mM” value was 0.05141 dABS/min (2×) and 0.05155 dABS/min.
B3 was tested, and the “dABS/min at ATP 5 mM” value was 0.03739 dABS/min and 0.03744 dABS/min and 0.03741 dABS/min.
For B4, the “dABS/min at ATP 5 mM” value was 0.09422 dABS/min and 0.0941 dABS/min and 0.09418 dABS/min.

Same assay, conditions: in words
With B2 the “affinity to mevalonate and ATP compared with the other enzymes” value was “higher affinity to mevalonate and ATP than the other enzymes”.

Same assay, conditions: potassium mevalonate 0.01 mM, ATP 5 mM; 10 μl enzyme in 1 ml; replicate values
In the case of B1, the “dABS/min at mev 0.01 mM” value is reported as 0.02921 dABS/min and 0.02805 dABS/min and 0.02788 dABS/min.
B2 was tested, and the “dABS/min at mev 0.01 mM” value was 0.06401 dABS/min and 0.0638 dABS/min and 0.06377 dABS/min.
B3 was tested, and the “dABS/min at mev 0.01 mM” value was 0.01264 dABS/min and 0.01267 dABS/min and 0.01265 dABS/min.
In the case of B4, the “dABS/min at mev 0.01 mM” value is reported as 0.01813 dABS/min and 0.01981 dABS/min and 0.01853 dABS/min.

Same assay, conditions: potassium mevalonate 0.04 mM, ATP 5 mM; 10 μl enzyme in 1 ml; replicate values
For B1, the “dABS/min at mev 0.04 mM” value was 0.08012 dABS/min and 0.08006 dABS/min and 0.08009 dABS/min.
For B2, the “dABS/min at mev 0.04 mM” value was 0.1211 dABS/min and 0.1213 dABS/min and 0.121 dABS/min.
In the case of B3, the “dABS/min at mev 0.04 mM” value is reported as 0.03701 dABS/min and 0.03703 dABS/min and 0.03697 dABS/min.
For B4, the “dABS/min at mev 0.04 mM” value was 0.05257 dABS/min and 0.05264 dABS/min and 0.05265 dABS/min.

Same assay, conditions: potassium mevalonate 0.2 mM, ATP 5 mM; 10 μl enzyme in 1 ml; replicate values
With B1 the “dABS/min at mev 0.2 mM” value was 0.1761 dABS/min and 0.1758 dABS/min and 0.176 dABS/min.
In the case of B2, the “dABS/min at mev 0.2 mM” value is reported as 0.1506 dABS/min (2×) and 0.1505 dABS/min.
In the case of B3, the “dABS/min at mev 0.2 mM” value is reported as 0.0771 dABS/min and 0.07712 dABS/min and 0.07711 dABS/min.
B4 was tested, and the “dABS/min at mev 0.2 mM” value was 0.11 dABS/min and 0.1103 dABS/min (2×).

From US10184137B2, “Method of producing isoprene monomer” (AJINOMOTO CO., INC., priority 2014, dated 2019)
